Assay results reported in paper PMC12598741 (2025).

What was measured:
Experiment in all cases: BLI
[1] = target: h11A4 x L15-3 hIgG4
[2] = target: h11A4 x L15-5 hIgG4
[3] = target: h11A4 x L15-1 hIgG4
[4] = target: h11A4 x L15-4 hIgG4
[5] = target: h11A4 x L15-2 hIgG4
[6] = target: L15
[7] = target: 17C7 x L15 hIgG4

B1: mouse CD16 (mCD16), his-tagged (receptor)
chain: ALPKAVVKLDPPWIQVLKEDMVTLMCEGTHNPGNSSTQWFHNGRSIRSQVQASYTFKATVNDSGEYRCQMEQTRLSDPVDLGVISDWLLLQTPQRVFLEGETITLRCHSWRNKLLNRISFFHNEKSVRYHHYKSNFSIPKANHSHSGDYYCKGSLGSTQHQSKPVTITVQDPATTSSISLVWYHT
Work on B1 yielded a Kd [1] of 218 nM, a Kd [2] of 197 nM and a Kd [3] of 163 nM. The Kd [4] was 211 nM, the Kd [5] was 119 nM and the Kd [6] was 126 nM. It also gave a Kd [7] of 16.3 nM.
